Reference: the supplement of paper PMC9112550, “Optimization of the antimicrobial peptide Bac7 by deep mutational scanning” (BMC Biology, 2022)

What follows are sequences tested on Escherichia coli TOP10 (assay: shrunken log2 fold change of peptide-encoding DNA abundance (4.5 h post-induction vs induction); higher = less antimicrobial activity (less host growth inhibition)). Conditions: time post-induction: 4.5 h; library: site-saturation at positions 5, 18, 19, 20.
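Further: peptides expressed intracellularly from a pBAD plasmid library in pooled LB shake-flask culture, induced with 0.3% L-arabinose, DNA abundance read by NGS, three biological replicates, DESeq2 with apeglm shrinkage.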

Q: RRIRFRPPRLPRPRPRPLICPRP was tested. Which “shrunken log2 fold change” value did it give?
A: -0.286

Q: For RRIRPRPPRLPRPRPRPVINPRP, which “shrunken log2 fold change” value is on record?
A: -0.626

Q: For RRIRYRPPRLPRPRPRPYFCPRP, which “shrunken log2 fold change” value is on record?
A: -1.09

Q: With RRIRIRPPRLPRPRPRPQWTPRP as the sequence, how does the “shrunken log2 fold change” value read?
A: -0.0472

Q: RRIRLRPPRLPRPRPRPGYCPRP was tested. Which “shrunken log2 fold change” value did it give?
A: -0.416

Q: How did the “shrunken log2 fold change” value turn out when RRIRARPPRLPRPRPRPGIWPRP was run?
A: 0.168

Q: Which “shrunken log2 fold change” value does the source give for RRIRGRPPRLPRPRPRPSMRPRP here?
A: 1.15

Q: How did the “shrunken log2 fold change” value turn out when RRIRHRPPRLPRPRPRPDSLPRP was run?
A: -0.0392

Q: For RRIRWRPPRLPRPRPRPVNRPRP, which “shrunken log2 fold change” value is on record?
A: -0.00204

Q: With RRIRARPPRLPRPRPRPIWWPRP as the sequence, how does the “shrunken log2 fold change” value read?
A: -0.00662

Q: For RRIRDRPPRLPRPRPRPWYGPRP, which “shrunken log2 fold change” value is on record?
A: -0.87

Q: How did the “shrunken log2 fold change” value turn out when RRIRKRPPRLPRPRPRPRFMPRP was run?
A: 0.102

Q: Which “shrunken log2 fold change” value does the source give for RRIRERPPRLPRPRPRPIVFPRP here?
A: 0.0592

Q: Which “shrunken log2 fold change” value does the source give for RRIRGRPPRLPRPRPRPYGSPRP here?
A: -0.303

Q: With RRIRSRPPRLPRPRPRPDHRPRP as the sequence, how does the “shrunken log2 fold change” value read?
A: 0.0482

Q: Which “shrunken log2 fold change” value does the source give for RRIRARPPRLPRPRPRPIFAPRP here?
A: 0.555

Q: Which “shrunken log2 fold change” value does the source give for RRIRKRPPRLPRPRPRPEDYPRP here?
A: 1.15

Q: Which “shrunken log2 fold change” value does the source give for RRIRIRPPRLPRPRPRPEKMPRP here?
A: -0.165

Q: How did the “shrunken log2 fold change” value turn out when RRIRVRPPRLPRPRPRPPTPPRP was run?
A: 0.548

Q: Which “shrunken log2 fold change” value does the source give for RRIRKRPPRLPRPRPRPKRCPRP here?
A: 0.309

Q: RRIRWRPPRLPRPRPRPDPHPRP was tested. Which “shrunken log2 fold change” value did it give?
A: 0.135

Q: With RRIRPRPPRLPRPRPRPEVHPRP as the sequence, how does the “shrunken log2 fold change” value read?
A: 0.551

Q: With RRIRMRPPRLPRPRPRPWFQPRP as the sequence, how does the “shrunken log2 fold change” value read?
A: 0.134

Q: With RRIRFRPPRLPRPRPRPMQEPRP as the sequence, how does the “shrunken log2 fold change” value read?
A: 0.0233

Q: RRIRLRPPRLPRPRPRPGVLPRP was tested. Which “shrunken log2 fold change” value did it give?
A: 0.204

Q: With RRIRVRPPRLPRPRPRPARTPRP as the sequence, how does the “shrunken log2 fold change” value read?
A: 0.147

Q: Which “shrunken log2 fold change” value does the source give for RRIRRRPPRLPRPRPRPHMDPRP here?
A: -0.265

Q: RRIRSRPPRLPRPRPRPWRFPRP was tested. Which “shrunken log2 fold change” value did it give?
A: 0.566

Q: How did the “shrunken log2 fold change” value turn out when RRIRLRPPRLPRPRPRPQWMPRP was run?
A: -0.0896

Q: For RRIRARPPRLPRPRPRPGLSPRP, which “shrunken log2 fold change” value is on record?
A: 0.821

Q: With RRIRSRPPRLPRPRPRPGKMPRP as the sequence, how does the “shrunken log2 fold change” value read?
A: -0.0839

Q: How did the “shrunken log2 fold change” value turn out when RRIRMRPPRLPRPRPRPMSRPRP was run?
A: 0.0997

Q: With RRIRERPPRLPRPRPRPSCKPRP as the sequence, how does the “shrunken log2 fold change” value read?
A: -0.277

Q: Which “shrunken log2 fold change” value does the source give for RRIRNRPPRLPRPRPRPKWKPRP here?
A: 0.0263

Q: How did the “shrunken log2 fold change” value turn out when RRIRLRPPRLPRPRPRPIAYPRP was run?
A: -0.0152

Q: How did the “shrunken log2 fold change” value turn out when RRIRYRPPRLPRPRPRPYKHPRP was run?
A: -1.18

Q: Which “shrunken log2 fold change” value does the source give for RRIRKRPPRLPRPRPRPESTPRP here?
A: 1.38

Q: How did the “shrunken log2 fold change” value turn out when RRIRTRPPRLPRPRPRPWGGPRP was run?
A: 0.439

Q: RRIRGRPPRLPRPRPRPCAYPRP was tested. Which “shrunken log2 fold change” value did it give?
A: 0.0946

Q: How did the “shrunken log2 fold change” value turn out when RRIRTRPPRLPRPRPRPIIFPRP was run?
A: -0.0206

Q: RRIRVRPPRLPRPRPRPDLAPRP was tested. Which “shrunken log2 fold change” value did it give?
A: 3.31

Q: Which “shrunken log2 fold change” value does the source give for RRIRPRPPRLPRPRPRPFMQPRP here?
A: -0.396

Q: With RRIRCRPPRLPRPRPRPCFSPRP as the sequence, how does the “shrunken log2 fold change” value read?
A: -0.344

Q: Which “shrunken log2 fold change” value does the source give for RRIRLRPPRLPRPRPRPWGWPRP here?
A: 0.264

Q: Which “shrunken log2 fold change” value does the source give for RRIRKRPPRLPRPRPRPWNHPRP here?
A: -0.172

Q: RRIRSRPPRLPRPRPRPMDIPRP was tested. Which “shrunken log2 fold change” value did it give?
A: -0.00112

Q: How did the “shrunken log2 fold change” value turn out when RRIRKRPPRLPRPRPRPMIMPRP was run?
A: -0.0451

Q: With RRIRSRPPRLPRPRPRPRQVPRP as the sequence, how does the “shrunken log2 fold change” value read?
A: 0.109

Q: Which “shrunken log2 fold change” value does the source give for RRIRTRPPRLPRPRPRPEQAPRP here?
A: 0.173

Q: How did the “shrunken log2 fold change” value turn out when RRIRIRPPRLPRPRPRPKPRPRP was run?
A: 0.576

Q: Which “shrunken log2 fold change” value does the source give for RRIRYRPPRLPRPRPRPENDPRP here?
A: -0.342

Q: RRIRSRPPRLPRPRPRPFQCPRP was tested. Which “shrunken log2 fold change” value did it give?
A: -0.461

Q: With RRIRLRPPRLPRPRPRPDALPRP as the sequence, how does the “shrunken log2 fold change” value read?
A: -0.354

Q: How did the “shrunken log2 fold change” value turn out when RRIRYRPPRLPRPRPRPNSQPRP was run?
A: -0.85

Q: RRIRYRPPRLPRPRPRPCHAPRP was tested. Which “shrunken log2 fold change” value did it give?
A: -0.702

Q: How did the “shrunken log2 fold change” value turn out when RRIRLRPPRLPRPRPRPPCVPRP was run?
A: -0.0544

Q: How did the “shrunken log2 fold change” value turn out when RRIRSRPPRLPRPRPRPWFHPRP was run?
A: -0.664

Q: How did the “shrunken log2 fold change” value turn out when RRIRPRPPRLPRPRPRPWTYPRP was run?
A: -0.0785

Q: How did the “shrunken log2 fold change” value turn out when RRIRLRPPRLPRPRPRPQWFPRP was run?
A: -0.0962

Q: RRIRDRPPRLPRPRPRPEMLPRP was tested. Which “shrunken log2 fold change” value did it give?
A: 1.4

Q: For RRIRYRPPRLPRPRPRPAFQPRP, which “shrunken log2 fold change” value is on record?
A: -0.00804

Q: With RRIRHRPPRLPRPRPRPAHDPRP as the sequence, how does the “shrunken log2 fold change” value read?
A: 0.0776

Q: RRIRDRPPRLPRPRPRPDDRPRP was tested. Which “shrunken log2 fold change” value did it give?
A: 0.108

Q: RRIRIRPPRLPRPRPRPYCEPRP was tested. Which “shrunken log2 fold change” value did it give?
A: -0.21

Q: Which “shrunken log2 fold change” value does the source give for RRIRVRPPRLPRPRPRPFDYPRP here?
A: -0.221

Q: How did the “shrunken log2 fold change” value turn out when RRIRYRPPRLPRPRPRPAVTPRP was run?
A: -3.6

Q: Which “shrunken log2 fold change” value does the source give for RRIRIRPPRLPRPRPRPPWFPRP here?
A: -0.136

Q: With RRIRYRPPRLPRPRPRPHPNPRP as the sequence, how does the “shrunken log2 fold change” value read?
A: -0.758

Q: Which “shrunken log2 fold change” value does the source give for RRIRFRPPRLPRPRPRPCNFPRP here?
A: -0.183

Q: For RRIRPRPPRLPRPRPRPPTGPRP, which “shrunken log2 fold change” value is on record?
A: 0.452

Q: For RRIRERPPRLPRPRPRPRKVPRP, which “shrunken log2 fold change” value is on record?
A: 0.107

Q: With RRIRVRPPRLPRPRPRPRLKPRP as the sequence, how does the “shrunken log2 fold change” value read?
A: 3.13

Q: Which “shrunken log2 fold change” value does the source give for RRIRGRPPRLPRPRPRPNLKPRP here?
A: 0.189

Q: For RRIRQRPPRLPRPRPRPEWDPRP, which “shrunken log2 fold change” value is on record?
A: 0.0586

Q: How did the “shrunken log2 fold change” value turn out when RRIRHRPPRLPRPRPRPFLTPRP was run?
A: -0.217
